In paper PMC9720954:

Assays:
Aβ1-40 monomers = Aβ1-40 monomers (UniProt P05067); experiment: ELISA; sandwich ELISA; 1 nM Aβ1-40 monomers or 1 nM Aβ1-42 aggregates held by coated rabbit polyclonal antibodies (C-terminal of Aβ, or Aβ1-42); serial dilutions of the recombinant proteins in 0.1% BSA, 0.05% Tween-20 in PBS, 2 h at RT; goat anti-mouse HRP
Aβ1-42 aggregates = Aβ1-42 aggregates (UniProt P05067); experiment: as above
[1] = molecular target: mouse TfR protein (mouse) (UniProt Q62351)

Sequence of Aβ1-40 monomers (P05067 672-711): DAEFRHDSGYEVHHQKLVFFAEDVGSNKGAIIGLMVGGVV
Sequence of Aβ1-42 aggregates (P05067 672-713): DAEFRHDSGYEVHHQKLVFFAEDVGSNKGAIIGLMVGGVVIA

fold weaker binding than the 3D6 antibody control (Aβ1-40 monomers): 50 fold
fold weaker binding than the 3D6 antibody control (Aβ1-42 aggregates): 100 fold
brain uptake (%ID per gram brain tissue) 2 h after intravenous injection of the 125I-labelled protein (0.05 mg/kg) in tg-ArcSwe mice, against sNEP without scFv8D3 [1]: 20 fold
Substance: sNEP-scFc-scFv8D3 (Fc fusion)
